The text below walks through data of publication PMC3597468 (Journal of controlled release : official journal of the …, 2012).

This series concerns the molecule itself. Put plainly: cross-linking.

B1: Catalase, from bovine liver (enzyme, UniProt P00432 1-527, looked up)
chain: MADNRDPASDQMKHWKEQRAAQKPDVLTTGGGNPVGDKLNSLTVGPRGPLLVQDVVFTDEMAHFDRERIPERVVHAKGAGAFGYFEVTHDITRYSKAKVFEHIGKRTPIAVRFSTVAGESGSADTVRDPRGFAVKFYTEDGNWDLVGNNTPIFFIRDALLFPSFIHSQKRNPQTHLKDPDMVWDFWSLRPESLHQVSFLFSDRGIPDGHRHMNGYGSHTFKLVNANGEAVYCKFHYKTDQGIKNLSVEDAARLAHEDPDYGLRDLFNAIATGNYPSWTLYIQVMTFSEAEIFPFNPFDLTKVWPHGDYPLIPVGKLVLNRNPVNYFAEVEQLAFDPSNMPPGIEPSPDKMLQGRLFAYPDTHRHRLGPNYLQIPVNCPYRARVANYQRDGPMCMMDNQGGAPNYYPNSFSAPEHQPSALEHRTHFSGDVQRFNSANDDNVTQVRTFYLKVLNEEQRKRLCENIAGHLKDAQLFIQKKAVKNFSDVHPEYGSRIQALLDKYNEEKPKNAVHTYVQHGSHLSAREKANL
On to B1, for which the binding result is listed as “binds”.
